Read-outs that look alike come from different tables or passages of the source. One block for each molecule: values may come before it.
What was measured:
[1] = molecular target: D. melanogaster ovulin (Acp26Aa), endogenous in male accessory glands (D. melanogaster (endogenous in male accessory glands)); test: non-reducing SDS-PAGE and Western blot of SDS-stable complexes
[2] = molecular target: D. melanogaster ovulin (Acp26Aa), endogenous in male accessory glands (D. melanogaster (endogenous in male accessory glands)); test: as above; remark: listed apart in the source
[3] = molecular target: D. pseudoobscura ovulin C-terminal fragment, 6xHis-tagged (D. pseudoobscura); test: cross-linking
[4] = molecular target: D. yakuba ovulin C-terminal fragment, 6xHis-tagged (D. yakuba); test: cross-linking
cross-linking = molecular target: the molecule itself; test: cross-linking
[5] = molecular target: the molecule itself; test: non-reducing SDS-PAGE and Western blot of SDS-stable complexes

Molecule: NVRNTYRNKYLTLLKELSQKINNEIAKVATDVPTETNPSQGNLPTL (domain or fragment, UniProt P10333 219-264, looked up) [Wild-type D. melanogaster ovulin C45 (C-terminal fragment), 6xHis- and Xpress-tagged]
stoichiometry N (cross-linking): 2

B1: D. simulans ovulin (putative ortholog), endogenous in male accessory glands (natural protein, UniProt P33737 19-255, looked up)
chain: NCDGEHQLDSSMDLKSDSTKSAVLKNVAPKNDATQAEIAKDDVALKSGKKGDYVMDIDVCTMPLDDYPINNSKSRKNSSTLPSQILTDKPNQGSNQIALKALKHRLLMEQNNNLFLRNHSVSLMNEIEARKTDIIQARQLNIDLELELEALKRKLSEMNAQNARKPTKSCKKRPSKDIAPPANQLQEVIVKNTYRNKYLTLLTQLAQKINYEIANVNNPATDVPTGKSPSEGNPSTT
stoichiometry N [5]: 2

B2: D. simulans ovulin C-terminal fragment, 6xHis-tagged (domain or fragment, UniProt P33737 156-255, looked up)
chain: RQLNIDLELELEALKRKLSEMNAQNARKPTKSCKKRPSKDIAPPANQLQEVIVKNTYRNKYLTLLTQLAQKINYEIANVNNPATDVPTGKSPSEGNPSTT
stoichiometry N (cross-linking): 2

Further lines, results first:

stoichiometry N [1]: 2 | stoichiometry N [2]: 2
Molecule: D. melanogaster ovulin (Acp26Aa), endogenous in male accessory glands (natural protein)

stoichiometry N [3]: 2
Molecule: D. pseudoobscura ovulin C-terminal fragment, 6xHis-tagged (domain or fragment)

stoichiometry N [4]: 2
Molecule: D. yakuba ovulin C-terminal fragment, 6xHis-tagged (domain or fragment)
